± gives the uncertainty stated by the source.

The data set in a line: amyloid nucleation score (Sup35N fusion, yeast selection) (log enrichment); library NNK1; higher = more nucleation; inactive = no reads after selection. In a few lines: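 Yeast lacking psi expressed peptides of 20 random codons fused to Sup35N, received 100 μM copper sulfate for 24 hours, and were then grown for 7 days at 30°C on medium lacking adenine and uracil. Illumina sequencing of input and output plasmid inserts provided the reads. Nucleation scores are DiMSum log enrichments of output over input, centred on the mode of non-aggregating sequences. Any sequence with under 100 input reads was excluded.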
In turn, QLCGFITCIISMSLPGYQCE displayed an amyloid nucleation score of 7.816 ± 0.052.
LVVIVTPWKYSEP gave an amyloid nucleation score of 6.58 ± 0.086.
Under NKEVNYTNIINCVGIRGCRL stands 4.77 ± 0.051; under IYIGLLYVLCIGLASMCLTS, 0.199 ± 0.84; under RLQDSLPTSEVTEIPPPAN, -0.405 ± 0.33.
Under WWGRGVLVWYGCRAKVWTS stands 0.012 ± 1.6.
Turning to SMDNYIVNSSTVWPSSFSLK, the amyloid nucleation score is 4.73 ± 0.075.
With YWGLQPFMIY the figure was 0.272 ± 0.74; with GLMDRRTFITICVYPFMESW, 4.37 ± 0.071; with DIFHSLILHMDMYEG, 0.811 ± 0.85.
On to KDRMITPKPTVVTHLVVSYG, for which the amyloid nucleation score is -0.23 ± 0.22.
Under VETIRQINVHVSGVDIHFWD stands 6.872 ± 0.045; under WSVISIEASLCRQVPLYANT, 0.26 ± 0.65; under MDWNQGVAGATMIYLCFNNN, 7.881 ± 0.064.
SQVLGSLLFRSPRVWICVAG gave an amyloid nucleation score of -0.969 ± 2.1.
In the case of RCYCDNFVLGLVEL, the amyloid nucleation score was 0.267 ± 0.29.
Consider LSNFDRWKTSTVWNSGWFAA, for which the amyloid nucleation score was -0.149 ± 1.3.
With KGYYDFRGVSLMVPVMFTMS the figure was 0.048 ± 0.38; with MRLLIGEKIMWSLRCCSDKG, -0.263 ± 0.29.
On to YSYGCCSMLNVVS, for which the amyloid nucleation score was determined as 1.93 ± 0.2.
With GYMSRVTLVVCTMMIRRNGD the figure was 0.906 ± 0.24; with KCDRHLKSYWSKELHYYYNF, -0.894 ± 0.38.
Under NKLRGGVGERSVLQGWIEED stands -0.052 ± 0.53.
On to TLNSPECDPNLSLML, for which the amyloid nucleation score is -0.555 ± 1.1.
In turn, VVESTGFIWAGEWVLWIEFS displayed an amyloid nucleation score of -0.356 ± 0.82.
Substance YCCYLMCYSRRILDGP showed an amyloid nucleation score of 0.174 ± 0.43.
CVRRLRVLCTFLLVTLLYCI returned an amyloid nucleation score of 1.67 ± 0.29.
Under GLRVLFGLLGVCPCRDSQWG stands “inactive”; under QLNLNLFACQCSTV, 8.072 ± 0.076; under GDLSLRLLG, 0.419 ± 0.66.
Consider GIAWALKLRLVDAYPGMSMS, for which the amyloid nucleation score stood at 0.168 ± 0.72.
LDFNLICLYFLM returned an amyloid nucleation score of 5.37 ± 0.072.
With SKSGLDDGHDA the figure was -0.335 ± 0.23.
For IELPRFYILVNFYGTLSLSL, the amyloid nucleation score came to 3.83 ± 0.12.
Under CLLIVRISNSKFVVPPTVFA stands 0.608 ± 0.49; under FSGLDYNVYVNLVPYFLCIN, 6.34 ± 0.077; under LLRGSCFMCSLLDYALVKEG, 3.84 ± 0.1.
With CNMVHVVIERDGSGRRGCGL the figure was 5.38 ± 0.055; with SNWFCGFYDWISVLFNSLKL, 1.42 ± 0.65.
With QRGMTIL, the amyloid nucleation score is 0.109 ± 0.31.
With TFQGARYYYWPAVF the figure was 1.33 ± 0.63.
Under RTDLGVRIKF stands 0.77 ± 0.55; under MDTVFSFYVIIPVQFSCVAL, 3 ± 0.13.
With TYDQTRMTVHRSSSIERART the figure was 0.173 ± 1.4; with RYYRVLLKFVLLSLVCTRYA, 0.578 ± 0.19; with WIMVFWEFVNLTCNNRILDN, -0.588 ± 0.72.
Regarding VVNLWTQADIMRSSCRLKHV, the amyloid nucleation score was 0.074 ± 0.19.
For CGITGMATVLNELPKLKHML, the amyloid nucleation score amounted to 0.202 ± 0.62.
Under ATVKVPNNSIRNDFFSNDRD stands -1.13 ± 1.2; under NLRIGFVEQLSSGVLDGPDD, 0.471 ± 0.97; under THFRCH, 0.762 ± 0.8.
Under FRVFIYPMWRSMWCFGYKEG stands “inactive”; under RSYESCRAWLDEDGSVPIEC, 1 ± 0.49; under MGAIFCNGSK, 0.371 ± 0.67.
Under CLLVLLLGLRLPYRPRLVFV stands 0.463 ± 0.79; under SSRFVWIASKINILYNFQTY, -0.403 ± 0.7; under LPFVDLKFL, 0.374 ± 0.28.
Consider SCPWLDSSLCFMNVGVLIYK, for which the amyloid nucleation score came to 3.37 ± 0.062.
Turning to PNAVCGQWFEDQL, the amyloid nucleation score was -0.269 ± 0.94.
YPGEGEPKKYLPYNRLCWRS returned an amyloid nucleation score of 1.08 ± 0.69.
MSISRALLGSSFMFGLVISA had an amyloid nucleation score of -0.14 ± 0.83.
VSTVLARSVWLWDTPFLRSE came in with an amyloid nucleation score of -0.079 ± 0.34.
In the case of EMVLLNATFYYAYCHSNRLR, the amyloid nucleation score was determined as 0.227 ± 0.27.
With IVWFCINDTASVVLKTLLSH the figure was 1.36 ± 0.78.
The substance EVEQVHLFSAVINSWCGDVF showed an amyloid nucleation score of 0.575 ± 0.41.
Take DKGVFAMDKRITMVEFLS: the amyloid nucleation score was -0.87 ± 1.3.
For the substance TGRYISDYCVIKAYVYSICD, the amyloid nucleation score was -0.135 ± 0.39.
The substance KVQIY showed an amyloid nucleation score of -0.968 ± 0.36.
For the substance WYPYTVSIPLIYVVSCIDEY, the amyloid nucleation score was found to be 5.91 ± 0.07.
GSLAW had an amyloid nucleation score of -0.972 ± 0.94.
Turning to FLICVTSNWLGTYCRVERFW, the amyloid nucleation score was 0.023 ± 0.35.
Under FLVLND stands 0.273 ± 0.2; under TLTRYC, -0.086 ± 1.2.
Consider IVLKVIINVCHYLTGGSTFA, for which the amyloid nucleation score was 6.475 ± 0.062.
Under VLESLAYFPGFNEWCGDMMS stands 1.43 ± 0.42.
Turning to SCGCYKSSLVNLL, the amyloid nucleation score was found to be 0.328 ± 0.9.
In the case of FGIPAHNLLCYGCFLNWILV, the amyloid nucleation score entry is “inactive”.
VLYGADDVLVRVSTCVYMGG came in with an amyloid nucleation score of -0.136 ± 0.25.
Substance LWMFRFNYYDVLPCGMPGLC returned an amyloid nucleation score of 0.694 ± 0.66.
With NRLATLVDVTVMQSNTFELL the figure was 0.748 ± 0.35; with NRTDKKDTLRWLFPT, 0.435 ± 0.81; with LPALKCELGAAMLSAQLMAR, -0.18 ± 0.24.
Regarding CLTLPYYSIYAVGESRMFEW, the amyloid nucleation score came out at 0.003 ± 0.27.
Under SSSKGSMENYISYRSL stands -0.703 ± 0.32.
Under SLEDEEQLYLANSIREGLAV stands 0.76 ± 0.51.
Under MVVLRFAKCDSCMTSMAKIL stands -0.045 ± 0.3; under RYLIPTYF, -1.76 ± 0.57; under TFFLVLVSPD, 0.059 ± 1.4.
As for FNLNNGIR, the amyloid nucleation score result was “inactive”.
In turn, QRNHWLYGVTLMPCSHICIL returned an amyloid nucleation score of 7.594 ± 0.053.
Under RGHLKLVTNYISMSRVSYFS stands 2.07 ± 0.16.
Under CSLLSAPPVDSLWGTESRLI stands -0.804 ± 0.73; under VWCVVVCMSRQGKYTLCRWR, 0.444 ± 0.97.
For the substance VNTMPILFFMPCVMKLSV, the amyloid nucleation score amounted to 1.53 ± 0.57.
With LEVYGQCDRVHCHSSR the figure was -0.276 ± 0.5; with TSNIRVLGHAMVNWVCWGRD, 3.18 ± 0.18.
Turning to GFWQLFLRVIPLFSVGYSNC, the amyloid nucleation score is 0.875 ± 0.69.
With LSGTNASIWY the figure was -0.212 ± 0.35; with NFRLEYDLCVGLTSSHIGGL, -0.219 ± 0.48; with GISFWSLGC, 1.07 ± 0.84.
As to GGAQMVHTSQSRCAARGV, the amyloid nucleation score is -0.831 ± 0.7.
With LRCLVLYDEVANGRPEDSGG the figure was 0.725 ± 1; with FSFYLYGGSC, -1.47 ± 2.4; with WSGWAKPSHYVALGRVGSWE, -0.075 ± 0.63.
With DETDQNTFTTSIV the figure was 1.23 ± 0.28; with GHWLRQVSRRLVPADDCMVQ, “inactive”; with LSHVKTTRLMPLET, -1.11 ± 1.7.
Under NRSYNN stands -0.243 ± 0.29.
Take FIYMQSVCAWFISWNSFR: the amyloid nucleation score was 0.355 ± 0.86.
SELIAQDMPQIENLTVDAAW: the amyloid nucleation score was -0.38 ± 0.35.
As for VYHSCSDMCFKAFQVNTYQC, the amyloid nucleation score is 1.16 ± 0.66.
For the substance EFWGVSLLVFVFCELIGIFC, the amyloid nucleation score is -0.479 ± 0.38.
The substance RFVRYQSQHFHKLNSWWGCL showed an amyloid nucleation score of 0.135 ± 0.39.
With MWTFWFSVCTYLFL the figure was 2.37 ± 0.2.
KSWQFMSRGVSGWFWRLVPQ registered an amyloid nucleation score of 0.743 ± 0.48.
Under RMVNKTECTRRRIITTSNWI stands 0.869 ± 0.81; under MREGFTLFVDKDCNAGTYTW, “inactive”.
The substance DGQPLLMGEHYSLGITLM gave an amyloid nucleation score of 1.1 ± 0.81.
Substance GMCIRNRMRDNVNSLSSACD yielded an amyloid nucleation score of 0.362 ± 1.4.
With NLRHALRMVTNGLSCTRKHG the figure was -0.278 ± 0.43.
For IMRSMSGWFGFVMLFDAS, the amyloid nucleation score was -0.598 ± 0.79.
Under VATRYWSRLCTMFVHSTRTT stands “inactive”; under RPLVRQPGEDYIFGLSSMCL, -0.203 ± 0.49; under FVPIF, -0.208 ± 0.72.
DNNYSCILAASYLYGLKNYL came in with an amyloid nucleation score of -0.12 ± 0.51.
LGTIVVSSVGKLGIIMTRAE displayed an amyloid nucleation score of 1.3 ± 0.15.
Regarding SFAADLFPRLVKACYSGILM, the amyloid nucleation score is -0.413 ± 1.5.
With GFVGYNCLCFCKSVA the figure was -1.05 ± 0.84; with EFTVPRWTPTGHTSGSLEWV, 0.22 ± 0.41.
Substance TWGSGY returned an amyloid nucleation score of -0.797 ± 0.93.
DWMNYVWTVTRIGSYSMVGI: the amyloid nucleation score amounted to 1 ± 0.68.
Consider NYLERHMQHPMRTHVFRGQL, for which the amyloid nucleation score was found to be 0.129 ± 0.72.
As for RFHNRFLYLFKFIQAQINKC, the amyloid nucleation score turned out to be 0.187 ± 0.41.
As for LVGVWMDCLMKPKPIARTLP, the amyloid nucleation score result is “inactive”.
RVGESVI: the amyloid nucleation score stood at 0.348 ± 0.55.
Take TRTRLEHNSVRKFWEL: the amyloid nucleation score result was “inactive”.
The substance GHTRR yielded an amyloid nucleation score of -0.062 ± 0.41.
With ILSVVYVLVCVVQVLCKQWH the figure was 0.163 ± 0.43.
